# Measured values taken from the RNAGym collection of RNA variant scans (doi:10.7554/elife.80360).
# B1: Hairpin Ribozyme (parent)
# chain: GUCCUCUUUCACGUGCGCGUGAAAGAGAGAAGUGAACCAGAGAAACACACGUUGUGGUAUAUUACCUGGUA
# Variants of: B1
# Test: self-cleavage, relative activity (ratio to wild type); higher = more cleavage; co-transcriptional
row,Variant,self-cleavage
1,C3A U8G,0.541
2,C3G A43C,0.168
3,C3G A43U,0.111
4,C3G A43G,0.0516
5,C3U C16A,0.462
6,C3U C10A,0.276
7,C3U C10U,0.454
8,U2G U9C,0.231
9,C3U A43C,0.161
10,C3U A49U,0.214
11,C3A C10A,0.461
12,C3A A23C,0.484
13,C3A A23U,0.619
14,C3A U33C,0.191
15,C3A U33G,0.146
16,C3G U60G,0.0943
17,C3G A26U,0.214
18,C3G C50A,0.0499
19,C3G C50U,0.13
20,C3G A31G,0.0813
21,C3G A31C,0.0694
22,C3G A31U,0.057
23,C3G A24C,0.238
24,C3G A24U,0.248

row,Variant,self-cleavage
1,C3G A24G,0.294
2,C3A G27C,0.21
3,C3A G25A,0.457
4,C3A G57U,0.153
5,C3A C50A,0.145
6,C3A C50U,0.236
7,C3G U58G,0.0994
8,C3G U58C,0.311
9,C3G A22C,0.227
10,C3A G13A,0.628
11,C3A C65A,0.662
12,C3G G32C,0.0586
13,C3G G32U,0.141
14,C3A A49G,0.426
15,U2G U33A,0.115
16,C3G G15A,0.281
17,U2G U7G,0.35
18,U2G U7C,0.384
19,U2G U7A,0.255
20,C3G U33G,0.156
21,C3G U33C,0.143
22,C3G C4G,0.244
23,C3A A35C,1.15
24,C3U A28G,0.554

row,Variant,self-cleavage
1,C3U A28U,0.582
2,C3U C12U,0.345
3,U2G U55A,0.195
4,U2G U55G,0.367
5,C3A U58C,0.811
6,C3A U58G,0.274
7,C3A U58A,0.637
8,C3G U8C,0.166
9,U2G U53C,0.575
10,C3G A47G,0.179
11,C3A G19C,0.535
12,C3A G19U,0.582
13,C3U A59U,0.205
14,C3G A44C,0.153
15,U2G U60G,0.278
16,C3A G21U,0.655
17,C3A G21A,0.567
18,C3G U20C,0.302
19,C3G G34C,0.911
20,C3A U63G,0.174
21,C3A U63C,0.154
22,C3U A71G,0.653
23,C3U A64C,0.0981
24,C3U A64U,0.238

row,Variant,self-cleavage
1,U2G U14G,0.322
2,C3G C38G,0.0857
3,C3G C38U,0.133
4,C3G C18U,0.341
5,C3G C18G,0.34
6,C3G G54A,0.177
7,U2G U8A,0.295
8,C3G G21U,0.252
9,C3A C48A,0.152
10,C3G U52A,0.332
11,C3A C12A,0.603
12,C3A C12G,0.636
13,C3A G56C,0.147
14,U2G U58C,0.384
15,C3A C46G,0.105
16,C3A U60G,0.338
17,C3G A36U,0.174
18,C3G U5C,0.132
19,C3A C6A,0.484
20,C3A G15C,0.65
21,C3G A11U,0.28
22,C3G A30C,0.0439
23,C3G A30U,0.118
24,C3G G25U,0.138

row,Variant,self-cleavage
1,C3G G25A,0.146
2,C3A U52C,0.619
3,C3A C38G,0.156
4,C3G A61G,0.0947
5,C3G A61U,0.0942
6,C3G G29A,0.148
7,U2G U70G,0.244
8,U2G U70C,0.12
9,C3A G51A,0.819
10,U2G U67A,0.139
11,C3A U62A,0.184
12,C3A U62G,0.101
13,C3A U5G,0.117
14,C3A U5C,0.247
15,C3G U9G,0.0419
16,C3A A24G,0.704
17,C3A U7A,0.822
18,C3A U7G,0.703
19,C3U C18U,0.487
20,C3G G13U,0.259
21,C3G G17U,0.365
22,C3G G69U,0.141
23,C3G U70G,0.272
24,C3G C16U,0.305

row,Variant,self-cleavage
1,C3A G54U,0.403
2,C3G G68C,0.188
3,C3A G69A,0.275
4,C3A G69U,0.212
5,C3G U14C,0.238
6,U2G U63A,0.149
7,C3G C66U,0.251
8,C3A G32A,0.176
9,C3A G32C,0.114
10,C3A G32U,0.0959
11,C3A A47C,0.239
12,C3A C37G,0.32
13,C3G A28C,0.541
14,C3G A28G,0.362
15,C3G C10U,0.213
16,C3A G68C,0.211
17,C3A G68A,0.172
18,C3A A44C,0.123
19,C3G G42U,0.188
20,C3A G34A,1.07
21,C3G A23C,0.194
22,C3G G27U,0.164
23,C3U A36U,0.33
24,C3U A24U,0.491

row,Variant,self-cleavage
1,C3U A24G,0.494
2,C3G A49G,0.148
3,C3U A26U,0.27
4,C3U A44G,0.254
5,C3A C16U,0.769
6,C3A C16G,0.587
7,C3A U67C,0.155
8,C3G A59C,0.064
9,C3A G40C,0.0884
10,C3U A35G,0.717
11,C3A A11C,0.618
12,C3A A11G,0.686
13,C3A A61C,0.16
14,C3U A22C,0.491
15,C3U A22G,0.603
16,C3G G40A,0.0852
17,C3G G40C,0.147
18,C3G G40U,0.0655
19,C3G U7G,0.281
20,C3A C66G,0.234
21,C3A C66U,0.435
22,C3A C66A,0.188
23,C3A A43G,0.143
